Measured values as given in doi:10.1101/2022.09.25.509378.

Assays:
[1] = target: bacteriophage λ terminase protomer (TerL•TerS2) (bacteriophage λ) (UniProt P03708); assay: cryo-EM 2D class averages
[2] = target: bacteriophage λ terminase protomer (TerL•TerS2) (bacteriophage λ) (UniProt P03708); assay: AUC
[3] = target: bacteriophage λ terminase protomer (TerL•TerS2) (bacteriophage λ) (UniProt P03708); assay: native MS
[4] = target: bacteriophage λ terminase protomer (TerL•TerS2) (bacteriophage λ) (UniProt P03708); assay: SAXS
[5] = target: bacteriophage λ terminase protomer (TerL•TerS2) (bacteriophage λ) (UniProt P03708); assay: AUC; remark: listed apart in the source

Substance: bacteriophage λ terminase protomer (TerL•TerS2) (from UniProt P03708 1-641; P03707 1-181) (complex)
- stoichiometry N [1]: 5
- stoichiometry N [2]: 3.3 to 4.4 protomers
- stoichiometry N [3]: 5 protomers
- stoichiometry N [4]: 4.4 protomers
- stoichiometry N [5]: 4.5 S
